Square brackets hold non-standard residues; d marks the D form. Ends that are not written are not given here. Peptide text beside a SMILES is read from it. * marks the point of attachment. His(Trt) = N[C@@H](Cc1cn(C(c2ccccc2)(c2ccccc2)c2ccccc2)cn1)C(=O)O; dPhe(4-CF3) = N[C@H](Cc1ccc(C(F)(F)F)cc1)C(=O)O; dPhe(4-Me) = Cc1ccc(C[C@@H](N)C(=O)O)cc1; Benzhydryl = c1ccc(C(c2ccccc2)*)cc1; Octanoyl = CCCCCCCC(=O)*; Boc = CC(C)(C)OC(=O)*
Tests used:
GPR39 = target: T1, GPR39 (Homo sapiens, UniProt O43194); assay: luciferase assay system (SRE luciferase reporter gene, CV-1 cells expressing GPR39); type: cell-based; design: expressed in transfected cells; host or cells: CV-1 fibroblast cell line (Korea Cell Line Bank), adenoviral transduction at 50 MOI
T1 sequence (O43194 1-453): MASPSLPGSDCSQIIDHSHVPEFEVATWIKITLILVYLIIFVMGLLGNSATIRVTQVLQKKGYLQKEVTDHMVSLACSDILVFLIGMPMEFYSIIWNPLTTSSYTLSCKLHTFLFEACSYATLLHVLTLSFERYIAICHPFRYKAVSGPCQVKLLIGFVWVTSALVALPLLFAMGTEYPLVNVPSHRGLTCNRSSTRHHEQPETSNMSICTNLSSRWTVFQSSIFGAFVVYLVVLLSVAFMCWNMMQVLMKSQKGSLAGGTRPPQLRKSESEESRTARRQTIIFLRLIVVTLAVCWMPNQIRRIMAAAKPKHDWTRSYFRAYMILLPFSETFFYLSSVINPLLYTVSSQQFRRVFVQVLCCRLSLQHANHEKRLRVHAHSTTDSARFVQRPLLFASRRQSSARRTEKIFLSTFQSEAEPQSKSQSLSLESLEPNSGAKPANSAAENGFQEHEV

[1] = target: T2, GPR39 (G protein coupled receptor 39) (UniProt O43194 1-453, limits assumed); assay: cell-based or functional assay
T2 sequence (looked up): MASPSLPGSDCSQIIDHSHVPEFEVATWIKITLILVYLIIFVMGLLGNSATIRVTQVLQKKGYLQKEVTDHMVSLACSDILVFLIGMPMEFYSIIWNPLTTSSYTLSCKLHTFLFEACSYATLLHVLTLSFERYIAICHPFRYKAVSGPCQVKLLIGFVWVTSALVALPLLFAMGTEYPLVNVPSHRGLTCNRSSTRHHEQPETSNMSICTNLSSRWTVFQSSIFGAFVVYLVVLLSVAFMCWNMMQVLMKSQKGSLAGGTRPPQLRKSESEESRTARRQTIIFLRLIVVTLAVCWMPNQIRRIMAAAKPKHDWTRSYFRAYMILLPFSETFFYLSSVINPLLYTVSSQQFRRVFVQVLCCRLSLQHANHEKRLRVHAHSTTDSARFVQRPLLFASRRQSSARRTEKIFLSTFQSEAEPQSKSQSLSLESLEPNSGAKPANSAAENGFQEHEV

[2] = target: T2, GPR39 (G protein coupled receptor 39); assay: cell-based or functional assay; remark: listed apart in the source
human GPR39 = target: T3, human GPR39 (human, UniProt O43194 1-453); assay: cell-based or functional assay
T3 sequence (looked up): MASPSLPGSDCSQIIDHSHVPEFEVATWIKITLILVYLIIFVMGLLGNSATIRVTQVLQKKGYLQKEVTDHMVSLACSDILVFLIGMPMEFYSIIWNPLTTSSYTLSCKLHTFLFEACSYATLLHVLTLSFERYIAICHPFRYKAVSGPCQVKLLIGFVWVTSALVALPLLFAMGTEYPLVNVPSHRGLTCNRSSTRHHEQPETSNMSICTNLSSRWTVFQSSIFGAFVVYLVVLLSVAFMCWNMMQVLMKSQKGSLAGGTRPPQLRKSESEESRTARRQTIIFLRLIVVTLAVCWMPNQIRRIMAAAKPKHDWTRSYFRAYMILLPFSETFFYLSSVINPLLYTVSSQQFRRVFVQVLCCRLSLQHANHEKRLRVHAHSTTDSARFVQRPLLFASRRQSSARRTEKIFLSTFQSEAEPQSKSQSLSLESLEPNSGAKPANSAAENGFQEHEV

Molecule: CCCCCCCC(=O)NCCCC[C@H](NC(=O)[C@@H](N)Cc1cn(S(=O)(=O)c2ccc(C)cc2)cn1)C(=O)N[C@H](Cc1ccc(C)cc1)C(=O)N[C@@H](Cc1ccc(O)cc1)C(=O)O [HKFY-75, ((R)-2-((S)-2-((S)-2-amino-3-(1-tosyl-1H-imidazol-4-yl)propanamido)-6-octanamidohexanamido)-3-(p-tolyl)propanoyl)-L-tyrosine]
- ECmax (−fold induction over basal) (GPR39): 15.9 ± 4.12 fold induction over basal

Molecule: CCCCCCCC(=O)NCCCC[C@H](NC(=O)[C@@H](N)Cc1cn(C(c2ccccc2)(c2ccccc2)c2ccccc2)cn1)C(=O)N[C@H](Cc1ccc(C(F)(F)F)cc1)C(=O)N[C@@H](Cc1ccc(O)cc1)C(=O)O [HKFY-76, ((R)-2-((S)-2-((S)-2-amino-3-(1-trityl-1H-imidazol-4-yl)propanamido)-6-octanamidohexanamido)-3-(4-(trifluoromethyl)phenyl)propanoyl)-L-tyrosine] (H-[His(Trt)]K(Octanoyl)[dPhe(4-CF3)]Y-OH)
- ECmax (−fold induction over basal) (GPR39): 14.2 ± 3.75 fold induction over basal

Molecule: CCCCCCCC(=O)NCCCC[C@H](NC(=O)[C@@H](N)Cc1cn(Cc2ccc(-c3ccccc3-c3nnn[nH]3)cc2)cn1)C(=O)N[C@H](Cc1ccc(C)cc1)C(=O)N[C@@H](Cc1ccc(O)cc1)C(=O)O [HKFY-77, ((R)-2-((S)-2-((S)-3-(1-((2′-(1H-tetrazol-5-yl)-[1,1′-biphenyl]-4-yl)methyl)-1H-imidazol-4-yl)-2-aminopropanamido)-6-octanamidohexanamido)-3-(p-tolyl)propanoyl)-L-tyrosine]
- ECmax (−fold induction over basal) (GPR39): 11.6 ± 2.14 fold induction over basal

Molecule: CCCCCCCC(=O)NCCCC[C@H](NC(=O)[C@H](Cc1c[nH]c2ccccc12)NC(=O)OC(C)(C)C)C(=O)N[C@H](Cc1ccc(C)cc1)C(=O)N[C@@H](Cc1ccc(O)cc1)C(=O)O [HKFY-78, ((R)-2-((S)-2-((S)-2-((tert-butoxycarbonyl)amino)-3-(1H-indol-3-yl)propanamido)-6-octanamidohexanamido)-3-(p-tolyl)propanoyl)-L-tyrosine] (Boc-WK(Octanoyl)[dPhe(4-Me)]Y-OH)
- ECmax (−fold induction over basal) (GPR39): 11.4 ± 1.54 fold induction over basal

Molecule: CCCCCCCC(=O)NCCCC[C@H](NC(=O)[C@@H](N)Cc1cn(C(c2ccccc2)c2ccccc2)cn1)C(=O)O [HKFY-79, N2-(Nt-benzhydryl-L-histidyl)-N6-octanoyl-L-lysine]
- ECmax (−fold induction over basal) (GPR39): 11.2 ± 1.4 fold induction over basal

Molecule: N2-(Nt-(naphthalen-1-ylmethyl)-L-histidyl)-N6-octanoyl-L-lysyl-L-phenylalanyl-L-tyrosine (H(naphthalen‑1‑ylmethyl)K(Octanoyl)FY-OH) [HKFY-10]
- ECmax (−fold induction over basal) (GPR39): 14 ± 2.12 fold induction over basal
- EC50 (GPR39; CV-1 cells, GPR39 and SRE luciferase adenovirus, 6 hours treatment): 46500 ± 1100 nM

Molecule: H(Benzhydryl)K(Octanoyl)[dPhe(4-Me)]Y [HKFY-34]
- EC50; SRE-luciferase reporter [1]: 7 nM
- ECmax; SRE-luciferase reporter [1]: 22.4 -fold induction over basal
- EC50; Reporter gene assay [2]: 6.7 nM
- ECmax; Reporter gene assay [2]: 22.4 -fold induction over basal
- EC50; Ca2+ influx assay (human GPR39): 2.7 nM
- ECmax; Ca2+ influx assay (human GPR39): 2.4 -fold induction over basal

— patent publication US20250340591A1, “COMPOSITION FOR PREVENTING OR TREATING INFLAMMATORY BOWEL DISEASE CONTAINING NOVEL COMPOUND” (ANYGEN CO., LTD., priority 2021, published 2025)
